2 molecules from patent EP2158221B1 (MacroGenics, Inc., dated 2018) can be followed below.

Assay [1] addresses T1, soluble CD16A (sCD16A) (human, UniProt P08637 17-208).
T1 construct: extracellular domain; also called sCD16A-Biotin; HRP conjugated sCD16A
The experiment in a line: sandwich ELISA, CD32B coat, HRP-CD16 probe. Background: An ELISA detects its analyte on a solid surface through an enzyme-linked reagent.

Assay [2] has as its target T2, sCD32B-Ig (human, UniProt P31994 43-217).
T2 construct: extracellular domain; also called CD32B (plate coat of the sandwich ELISA); not shown: Ig part not described
T2 sequence (looked up): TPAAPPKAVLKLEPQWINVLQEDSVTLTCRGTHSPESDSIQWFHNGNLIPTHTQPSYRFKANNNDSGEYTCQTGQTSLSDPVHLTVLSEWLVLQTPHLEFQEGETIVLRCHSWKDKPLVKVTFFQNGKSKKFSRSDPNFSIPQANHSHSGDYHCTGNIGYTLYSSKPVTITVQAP
The assay can be described thus: sandwich ELISA, CD32B coat, HRP-CD16 probe.

T1 sequence (P08637 17-208): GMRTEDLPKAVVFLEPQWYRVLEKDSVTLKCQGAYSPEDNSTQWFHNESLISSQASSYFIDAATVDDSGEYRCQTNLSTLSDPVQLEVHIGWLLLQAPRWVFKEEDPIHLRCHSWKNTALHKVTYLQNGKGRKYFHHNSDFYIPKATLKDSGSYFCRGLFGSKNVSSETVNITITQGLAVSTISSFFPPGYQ

B1: diabody of constructs 9 and 1 (pMGX0719 + pMGX0669) (bispecific antibody, human IgG1)
chain 1: not shown
chain 2: EIVLTQSPDFQSVTPKEKVTFTCRTSQSIGTNIHWYQQKPDQSPKLLIKEVSESISGVPSRFSGSGSGTDFTLTINSLEAEDAATYYCQQSNTWPFTFGGGTKVEIKGGGSGGGGQVTLRESGPALVKPTQTLTLTCTFSGFSLSTSGMGVGWIRQPPGKALEWLAHIWWDDDKRYNPALKSRLTISKDTSKNQVVLTMTNMDPVDTATYYCAQINPAWFAYWGQGTLVTVSSLGGC
notes: hinge/Fc at the N-terminus of the heavier chain; about 150 kDa species on Western blot; also called constructs 1 and 9; constructs 9+1
For the molecule B1, the binding result in assay [1] and in assay [2] was “binds” in each case.

B2: diabody of constructs 10 and 1 (pMGX0718 + pMGX0669) (bispecific antibody)
chain 1: not shown
chain 2: EIVLTQSPDFQSVTPKEKVTFTCRTSQSIGTNIHWYQQKPDQSPKLLIKEVSESISGVPSRFSGSGSGTDFTLTINSLEAEDAATYYCQQSNTWPFTFGGGTKVEIKGGGSGGGGQVTLRESGPALVKPTQTLTLTCTFSGFSLSTSGMGVGWIRQPPGKALEWLAHIWWDDDKRYNPALKSRLTISKDTSKNQVVLTMTNMDPVDTATYYCAQINPAWFAYWGQGTLVTVSSLGGC
notes: Fc at the N-terminus of the heavier chain; at least two species of about 75 and 100 kDa on Western blot; also called constructs 1 and 10; constructs 10+1; copies: 2 + 2
Take B2: the binding result in assay [1] and in assay [2] was “binds” each time.
